The chains are these.
T1: EsCas13d, nuclease-dead (Eubacterium siraeum, UniProt B0MS50, R295A;H300A;R849A;H854A)
T1 sequence: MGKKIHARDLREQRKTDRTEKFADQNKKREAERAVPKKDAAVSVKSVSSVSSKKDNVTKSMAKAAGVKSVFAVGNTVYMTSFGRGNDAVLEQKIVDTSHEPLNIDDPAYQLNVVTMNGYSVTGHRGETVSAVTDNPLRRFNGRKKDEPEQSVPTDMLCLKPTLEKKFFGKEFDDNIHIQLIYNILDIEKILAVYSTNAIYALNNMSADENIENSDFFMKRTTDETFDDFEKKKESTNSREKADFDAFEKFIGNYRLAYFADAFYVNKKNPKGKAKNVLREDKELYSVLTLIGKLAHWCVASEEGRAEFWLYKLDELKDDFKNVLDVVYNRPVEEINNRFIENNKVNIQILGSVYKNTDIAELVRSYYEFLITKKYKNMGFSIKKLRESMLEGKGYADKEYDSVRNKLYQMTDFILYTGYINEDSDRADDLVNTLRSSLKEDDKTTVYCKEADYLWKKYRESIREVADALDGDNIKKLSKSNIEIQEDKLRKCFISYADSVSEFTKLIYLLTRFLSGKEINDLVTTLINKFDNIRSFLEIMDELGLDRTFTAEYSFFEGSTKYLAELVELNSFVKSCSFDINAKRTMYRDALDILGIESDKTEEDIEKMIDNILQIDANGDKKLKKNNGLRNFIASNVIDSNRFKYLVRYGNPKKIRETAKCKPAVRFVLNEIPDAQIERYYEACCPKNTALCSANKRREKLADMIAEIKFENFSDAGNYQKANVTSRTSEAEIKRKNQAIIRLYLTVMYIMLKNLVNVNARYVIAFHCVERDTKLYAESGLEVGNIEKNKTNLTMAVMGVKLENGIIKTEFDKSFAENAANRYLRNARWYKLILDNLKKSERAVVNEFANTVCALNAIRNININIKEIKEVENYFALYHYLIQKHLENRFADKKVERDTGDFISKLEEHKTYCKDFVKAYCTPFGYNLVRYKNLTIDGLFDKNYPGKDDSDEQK

B1: crRNA-2 (MT) target (mixed)
RNA 1: CACCCGUGCAAAAUUGCAGGGGUCUAAAACCUUGAAGUUUUCCAAGUGCACU
RNA 2: UCCACAGCAAGUGCACUUGGAAAACUUCAAGAUGUGGUCA
B2: target 1 C2G (60-mer) (mixed)
RNA 1: CACCCGUGCAAAAAUGCAGGGGUCUAAAACUGAGCGGAUAACCUCUCUAUGG
RNA 2: CCACAUCUACGAAUUCGUACCAUAGAGAGGUUAUCCGCUGACCGAGAUCGGAAGAGCACA
B3: target 1 3'-GCU (60-mer) (mixed)
RNA 1: B2 RNA 1
RNA 2: B2 RNA 2 with G40C, C42G, G44U
B4: target 1 MT (60-mer) (mixed)
RNA 1: B2 RNA 1
RNA 2: B2 RNA 2 with G40C
B5: target 1 MT 5'PFS UAC 3'PFS AUU (mixed)
RNA 1: B2 RNA 1
RNA 2: GGGAAUGGAUCCACAUCUACGAAUUCUACCCAUAGAGAGGUUAUCCGCUCAAUUAGAUCGGAAGAGCACACGU
B6: target 1 MT 5'PFS UAA 3'PFS AGA (mixed)
RNA 1: B2 RNA 1
RNA 2: B5 RNA 2 with C29A, U53G, U54A
B7: target 1 MT 5'PFS CUG 3'PFS AUG (mixed)
RNA 1: B2 RNA 1
RNA 2: B5 RNA 2 with U27C, A28U, C29G, U54G
B8: target 1 insG 3' of 14,insG 3' of 8 (mixed)
RNA 1: B2 RNA 1
RNA 2: GGGAAUGGAUCCACAUCUACGAAUUCGUACCAUAGAGAGGGUUAUGCCGCUCACCGAGAUCGGAAGAGCACACGU
B9: target 1 MT 5'PFS CCC 3'PFS UAA (mixed)
RNA 1: B2 RNA 1
RNA 2: B5 RNA 2 with U27C, A28C, A52U, U53A, U54A
B10: target 1 MT 5'PFS CUG 3'PFS AUA (mixed)
RNA 1: B2 RNA 1
RNA 2: B5 RNA 2 with U27C, A28U, C29G, U54A
B11: target 1 MT 5'PFS UAA 3'PFS CAA (mixed)
RNA 1: B2 RNA 1
RNA 2: B5 RNA 2 with C29A, A52C, U53A, U54A
B12: target 1 MT 5'PFS AAG 3'PFS UAC (mixed)
RNA 1: B2 RNA 1
RNA 2: B5 RNA 2 with U27A, C29G, A52U, U53A, U54C
B13: target 1 MT 5'PFS GCU 3'PFS CAU (mixed)
RNA 1: B2 RNA 1
RNA 2: B5 RNA 2 with U27G, A28C, C29U, A52C, U53A
B14: target 1 MT 5'PFS UUG 3'PFS UGU (mixed)
RNA 1: B2 RNA 1
RNA 2: B5 RNA 2 with A28U, C29G, A52U, U53G
B15: target 1 MT 5'PFS UGG 3'PFS UCG (mixed)
RNA 1: B2 RNA 1
RNA 2: B5 RNA 2 with A28G, C29G, A52U, U53C, U54G
B16: target 1 MT 5'PFS GCC 3'PFS CGA (mixed)
RNA 1: B2 RNA 1
RNA 2: B5 RNA 2 with U27G, A28C, A52C, U53G, U54A
B17: target 1 MT 5'PFS GCC 3'PFS UGU (mixed)
RNA 1: B2 RNA 1
RNA 2: B5 RNA 2 with U27G, A28C, A52U, U53G
B18: target 1 MT 5'PFS UAA 3'PFS AGG (mixed)
RNA 1: B2 RNA 1
RNA 2: B5 RNA 2 with C29A, U53G, U54G
B19: target 1 MT 5'PFS GGA 3'PFS AGA (mixed)
RNA 1: B2 RNA 1
RNA 2: B5 RNA 2 with U27G, A28G, C29A, U53G, U54A
B20: target 1 MT 5'PFS GCU 3'PFS CAA (mixed)
RNA 1: B2 RNA 1
RNA 2: B5 RNA 2 with U27G, A28C, C29U, A52C, U53A, U54A
B21: target 1 MT 5'PFS GCC 3'PFS CGC (mixed)
RNA 1: B2 RNA 1
RNA 2: B5 RNA 2 with U27G, A28C, A52C, U53G, U54C
B22: target 1 MT 5'PFS GCU 3'PFS UAG (mixed)
RNA 1: B2 RNA 1
RNA 2: B5 RNA 2 with U27G, A28C, C29U, A52U, U53A, U54G
B23: target 1 MT 5'PFS UGG 3'PFS UCA (mixed)
RNA 1: B2 RNA 1
RNA 2: B5 RNA 2 with A28G, C29G, A52U, U53C, U54A
B24: target 1 MT 5'PFS GCC 3'PFS CGG (mixed)
RNA 1: B2 RNA 1
RNA 2: B5 RNA 2 with U27G, A28C, A52C, U53G, U54G
B25: target 1 MT 5'PFS CUG 3'PFS AUU (mixed)
RNA 1: B2 RNA 1
RNA 2: B5 RNA 2 with U27C, A28U, C29G
B26: target 1 MT 5'PFS GCC 3'PFS UGA (mixed)
RNA 1: B2 RNA 1
RNA 2: B5 RNA 2 with U27G, A28C, A52U, U53G, U54A
B27: target 1 MT 5'PFS GCC 3'PFS CGU (mixed)
RNA 1: B2 RNA 1
RNA 2: B5 RNA 2 with U27G, A28C, A52C, U53G
B28: target 1 MT 5'PFS CAG 3'PFS UGA (mixed)
RNA 1: B2 RNA 1
RNA 2: B5 RNA 2 with U27C, C29G, A52U, U53G, U54A
B29: target 1 MT 5'PFS AGG 3'PFS UCC (mixed)
RNA 1: B2 RNA 1
RNA 2: B5 RNA 2 with U27A, A28G, C29G, A52U, U53C, U54C
B30: target 1 MT 5'PFS UCG 3'PFS UGA (mixed)
RNA 1: B2 RNA 1
RNA 2: B5 RNA 2 with A28C, C29G, A52U, U53G, U54A
B31: target 1 MT 5'PFS GCU 3'PFS UAA (mixed)
RNA 1: B2 RNA 1
RNA 2: B5 RNA 2 with U27G, A28C, C29U, A52U, U53A, U54A
B32: target 1 U3G,G15A (mixed)
RNA 1: B2 RNA 1
RNA 2: B5 RNA 2 with U27G, A28U, C29A, G37A, U49G, A52C, U53C, U54G
B33: target 1 MT 5'PFS UAC 3'PFS AUG (mixed)
RNA 1: B2 RNA 1
RNA 2: B5 RNA 2 with U54G
B34: target 1 MT 5'PFS GCC 3'PFS UGC (mixed)
RNA 1: B2 RNA 1
RNA 2: B5 RNA 2 with U27G, A28C, A52U, U53G, U54C

The Kd is the free concentration of one partner at which half of the binding sites on the other are occupied at equilibrium, for simple one-to-one binding. High values mean weaker binding, low ones tighter binding. The term koff denotes the first-order rate constant of dissociation. A low value points to slow dissociation. Broadly, the kon is the second-order rate constant of association.

Where a chain is given by its changes, count along the chain named. Names and notes keep the numbering of the source.

For one data set, the target named is T1, EsCas13d, nuclease-dead. The data set is described as follows: BLI; crRNA (strand 1, pre-loaded); Mg2+; 40 mM Tris-HCl pH 7.5, 150 mM NaCl, 6 mM MgCl2, 1 mM DTT, 0.1% Tween-20, 0.2 mg/ml BSA; temperature not stated. The following applies: tags: His6-TwinStrep-SUMO cleaved; label: 3' biotin on strand 2.
In turn, B1 had a Kd of 3 nM.
The same measure, in the same setting: as for B2, the figure is 2 nM; as for B3, 4.2 nM.

A further data set concerns the target T1, EsCas13d, nuclease-dead. The data set is described as above. The following applies: tags: His6-TwinStrep-SUMO cleaved; label: 3' biotin on strand 2. This is another data set of the same source.
Consider B4, for which the koff turned out to be 0.00052 s⁻¹ and the kon was 170000 M⁻¹ s⁻¹.
On the same counts, the results for B2 are 0.0004 s⁻¹ and 200000 M⁻¹ s⁻¹.

The target in another data set is T1, EsCas13d, nuclease-dead. The data set is described as follows: crRNA (strand 1, pre-loaded); Mg2+; 40 mM Tris-HCl pH 7.5, 150 mM NaCl, 6 mM MgCl2, 1 mM DTT, 0.1% Tween-20, 0.2 mg/ml BSA; 25 C; 10 min per concentration, then washed. The following applies: tags: His6-TwinStrep-SUMO cleaved; N-terminal SNAP kept (SNAP-Surface 488); label: 3' end held by stalled T7 RNA polymerase.
Consider B5, for which binding was characterised by a dissociation constant (Kd) of 26.5 ± 8 nM.
On the same count and under the same terms, as for B6, the figure is 37 ± 6.5 nM; as for B7, 33.5 ± 8 nM.
On the same count and under the same terms, as for B8, the figure is 9.7 ± 0.7 nM; as for B9, roughly 11 nM.
Same read-out and setting: then B10, with 5.05 ± 1.4 nM; and B11, with roughly 52.5 nM.
Take B12: the Kd was 24 ± 7 nM.
On the same count and under the same terms, as for B13, the figure is 51 ± 15 nM; as for B14, 51 ± 11.5 nM.
The molecule B15 gave a Kd of 71.5 ± 22.5 nM.
Still for that read-out and setting: as for B16, the figure is 18.5 ± 7.5 nM; as for B17, 20 ± 5 nM.
Same read-out and setting: as for B18, the figure is roughly 75 nM; as for B19, 20.5 ± 2.75 nM; as for B20, roughly 60 nM.
On the same count and under the same terms, as for B21, the figure is 15.5 ± 6 nM; as for B22, roughly 95 nM; as for B23, 70 ± 29 nM.
Molecule B24 returned a Kd of 26.1 ± 9.1 nM.
As for B25, the dissociation constant Kd came to 6.05 ± 1.6 nM. This Kd is about 4.3-fold lower than that of the molecule before.
The same measure, in the same setting: then B26, with 11.8 ± 2.3 nM.
The same measure, in the same setting: then B27, with 10.1 ± 1.65 nM.
B28 displayed a Kd of roughly 60 nM.
B29 had a Kd of 49 ± 19 nM.
Still for that read-out and setting: as for B30, the figure is 33 ± 9.5 nM; as for B31, 49.5 ± 11 nM; as for B32, 17.5 ± 1 nM.
On the same count and under the same terms, as for B33, the figure is 43 ± 20.5 nM; as for B34, 9 ± 1.35 nM.

For the origin of these results see article PMC10786891, “Massively parallel profiling of RNA-targeting CRISPR-Cas13d”.
